Experimental data taken from patent US20090149389A1 (PURDUE RESEARCH FOUNDATION, published 2009).

How the values were obtained:
Experiment in all cases: cell-based or functional assay
EGFR (h) = EGFR (h) (human (h), UniProt P00533 696-1210, limits assumed)
CHK1 (h) = target: T1, CHK1 (h) (human (h), UniProt O14757 1-476)
T1 sequence (looked up): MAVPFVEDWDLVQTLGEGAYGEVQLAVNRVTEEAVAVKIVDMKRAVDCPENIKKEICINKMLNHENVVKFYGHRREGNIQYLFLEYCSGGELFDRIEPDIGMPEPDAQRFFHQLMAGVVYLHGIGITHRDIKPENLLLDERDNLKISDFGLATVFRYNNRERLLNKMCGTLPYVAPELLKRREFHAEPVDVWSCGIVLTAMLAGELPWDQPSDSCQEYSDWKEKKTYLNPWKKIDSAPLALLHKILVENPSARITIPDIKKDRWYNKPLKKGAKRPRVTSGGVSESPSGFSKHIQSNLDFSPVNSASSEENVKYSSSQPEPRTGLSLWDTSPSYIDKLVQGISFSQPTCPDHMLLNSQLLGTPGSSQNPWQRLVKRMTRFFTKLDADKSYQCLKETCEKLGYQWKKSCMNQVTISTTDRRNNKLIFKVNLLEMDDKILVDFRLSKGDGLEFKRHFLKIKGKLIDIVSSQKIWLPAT

cKit (h) = cKit (h) (human (h), UniProt P10721 544-976, limits assumed)
MLCK (h) = MLCK (h) (human (h))
Src(1-530) (h) = Src(1-530) (h) (human (h), UniProt P12931 1-530)
IGF-IR (h) = IGF-IR (h) (human (h), UniProt P08069 959-1367, limits assumed)
KDR (tl) = KDR (tl) (UniProt P35968 790-1356, limits assumed)
MSK1 (h) = MSK1 (h) (human (h), UniProt O75582 1-802)
TrkA (h) = TrkA (h) (human (h), UniProt P04629 441-796, limits assumed)
FGFR1 (h) = FGFR1 (h) (human (h), UniProt P11362 456-765, limits assumed)
L1MK1 (h) = L1MK1 (h) (human (h), UniProt P53667 285-638, limits assumed)
MEKI (h) = MEKI (h) (human (h), UniProt Q02750 1-393)
BTK (h) = BTK (h) (human (h), UniProt Q06187 1-659)
JNK1α1 (h) = JNK1α1 (h) (human (h), UniProt P45983-2 1-384)
PKG1β (h) = target: T2, PKG1β (h) (human (h), UniProt Q13976-2 1-686)
T2 sequence (looked up): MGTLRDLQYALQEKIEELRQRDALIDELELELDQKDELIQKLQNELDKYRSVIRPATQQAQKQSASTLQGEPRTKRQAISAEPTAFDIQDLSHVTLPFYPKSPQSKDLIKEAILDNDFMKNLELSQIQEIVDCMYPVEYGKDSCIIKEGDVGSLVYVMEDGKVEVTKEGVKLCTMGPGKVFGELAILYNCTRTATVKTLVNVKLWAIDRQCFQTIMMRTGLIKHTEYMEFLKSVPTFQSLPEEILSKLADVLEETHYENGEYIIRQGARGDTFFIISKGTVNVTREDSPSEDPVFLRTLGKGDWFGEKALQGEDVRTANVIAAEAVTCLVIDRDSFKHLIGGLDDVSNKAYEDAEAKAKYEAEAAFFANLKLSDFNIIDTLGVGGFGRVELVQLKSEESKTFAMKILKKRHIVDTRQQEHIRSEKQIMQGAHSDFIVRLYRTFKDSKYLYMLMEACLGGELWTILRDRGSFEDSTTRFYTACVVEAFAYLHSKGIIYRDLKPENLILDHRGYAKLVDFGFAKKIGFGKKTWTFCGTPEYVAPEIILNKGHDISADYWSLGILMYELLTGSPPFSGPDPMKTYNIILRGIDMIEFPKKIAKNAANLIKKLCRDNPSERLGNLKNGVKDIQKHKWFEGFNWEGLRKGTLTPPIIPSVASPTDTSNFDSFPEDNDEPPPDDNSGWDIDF

PhKγ2 (h) = target: T3, PhKγ2 (h) (human (h), UniProt P15735 1-406)
T3 sequence (looked up): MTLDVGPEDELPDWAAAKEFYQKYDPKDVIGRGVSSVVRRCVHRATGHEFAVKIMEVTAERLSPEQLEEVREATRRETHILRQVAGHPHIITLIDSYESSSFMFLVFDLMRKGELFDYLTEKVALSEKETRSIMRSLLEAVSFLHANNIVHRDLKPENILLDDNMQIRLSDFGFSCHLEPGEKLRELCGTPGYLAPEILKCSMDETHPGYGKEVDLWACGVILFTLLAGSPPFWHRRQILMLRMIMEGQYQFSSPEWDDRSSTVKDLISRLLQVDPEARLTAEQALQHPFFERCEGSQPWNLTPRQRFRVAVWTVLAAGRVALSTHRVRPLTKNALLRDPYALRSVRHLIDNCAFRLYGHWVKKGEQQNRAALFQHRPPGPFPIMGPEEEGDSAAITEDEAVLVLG

Sequence of IGF-IR (h) (P08069 959-1367 limits assumed): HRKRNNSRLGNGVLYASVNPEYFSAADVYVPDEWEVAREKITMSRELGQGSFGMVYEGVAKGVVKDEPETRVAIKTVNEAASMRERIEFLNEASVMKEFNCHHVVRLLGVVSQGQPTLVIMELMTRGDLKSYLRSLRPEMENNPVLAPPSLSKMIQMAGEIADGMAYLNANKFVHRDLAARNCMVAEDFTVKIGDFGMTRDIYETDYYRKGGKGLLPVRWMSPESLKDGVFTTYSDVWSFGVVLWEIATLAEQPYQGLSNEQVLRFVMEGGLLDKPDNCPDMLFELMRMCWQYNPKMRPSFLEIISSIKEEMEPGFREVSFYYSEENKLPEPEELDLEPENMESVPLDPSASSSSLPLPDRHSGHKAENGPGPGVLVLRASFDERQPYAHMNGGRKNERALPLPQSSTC
Sequence of TrkA (h) (P04629 441-796 limits assumed): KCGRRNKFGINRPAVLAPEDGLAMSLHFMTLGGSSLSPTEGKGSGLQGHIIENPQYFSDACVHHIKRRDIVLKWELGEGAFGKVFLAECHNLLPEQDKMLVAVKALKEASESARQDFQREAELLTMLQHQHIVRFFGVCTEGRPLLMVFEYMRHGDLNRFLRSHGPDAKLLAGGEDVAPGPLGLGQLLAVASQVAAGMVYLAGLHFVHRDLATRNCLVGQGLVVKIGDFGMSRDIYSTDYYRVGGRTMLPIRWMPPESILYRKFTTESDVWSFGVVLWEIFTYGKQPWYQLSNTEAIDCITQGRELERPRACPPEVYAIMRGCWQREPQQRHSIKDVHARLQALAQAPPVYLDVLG
Sequence of FGFR1 (h) (P11362 456-765 limits assumed): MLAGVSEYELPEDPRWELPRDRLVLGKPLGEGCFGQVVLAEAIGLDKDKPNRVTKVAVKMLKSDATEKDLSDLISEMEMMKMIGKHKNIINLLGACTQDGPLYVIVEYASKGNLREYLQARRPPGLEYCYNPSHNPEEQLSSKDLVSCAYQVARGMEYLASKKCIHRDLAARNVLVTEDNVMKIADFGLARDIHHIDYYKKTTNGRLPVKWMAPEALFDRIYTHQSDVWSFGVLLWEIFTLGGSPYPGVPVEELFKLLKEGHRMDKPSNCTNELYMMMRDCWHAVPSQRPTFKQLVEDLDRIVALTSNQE
Sequence of BTK (h) (Q06187 whole entry): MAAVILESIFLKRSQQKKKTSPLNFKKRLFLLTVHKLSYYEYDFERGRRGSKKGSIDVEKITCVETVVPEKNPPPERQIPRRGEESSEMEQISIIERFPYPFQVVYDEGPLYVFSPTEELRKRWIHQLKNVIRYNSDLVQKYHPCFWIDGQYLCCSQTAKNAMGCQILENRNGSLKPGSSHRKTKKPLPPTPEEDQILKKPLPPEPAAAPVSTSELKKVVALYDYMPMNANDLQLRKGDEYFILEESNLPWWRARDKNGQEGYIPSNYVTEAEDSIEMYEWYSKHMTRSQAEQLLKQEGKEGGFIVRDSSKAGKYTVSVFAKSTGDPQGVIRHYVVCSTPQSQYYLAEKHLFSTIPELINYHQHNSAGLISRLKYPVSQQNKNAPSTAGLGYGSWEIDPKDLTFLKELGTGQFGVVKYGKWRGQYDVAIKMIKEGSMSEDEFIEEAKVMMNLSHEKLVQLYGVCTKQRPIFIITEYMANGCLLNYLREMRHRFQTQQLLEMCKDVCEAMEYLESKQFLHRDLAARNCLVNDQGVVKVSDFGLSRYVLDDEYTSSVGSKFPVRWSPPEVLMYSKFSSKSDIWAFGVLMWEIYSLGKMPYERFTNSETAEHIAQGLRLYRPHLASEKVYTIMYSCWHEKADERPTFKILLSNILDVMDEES
Sequence of L1MK1 (h) (P53667 285-638 limits assumed): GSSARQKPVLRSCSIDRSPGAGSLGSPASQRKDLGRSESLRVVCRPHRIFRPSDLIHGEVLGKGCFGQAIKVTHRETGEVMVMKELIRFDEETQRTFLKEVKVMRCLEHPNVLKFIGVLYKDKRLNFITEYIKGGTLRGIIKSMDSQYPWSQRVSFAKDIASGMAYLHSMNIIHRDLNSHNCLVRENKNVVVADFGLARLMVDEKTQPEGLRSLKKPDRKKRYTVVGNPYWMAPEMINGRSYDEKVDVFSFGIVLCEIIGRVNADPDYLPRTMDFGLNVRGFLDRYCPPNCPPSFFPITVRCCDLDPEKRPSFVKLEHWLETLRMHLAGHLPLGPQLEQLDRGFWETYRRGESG
Sequence of KDR (tl) (P35968 790-1356 limits assumed): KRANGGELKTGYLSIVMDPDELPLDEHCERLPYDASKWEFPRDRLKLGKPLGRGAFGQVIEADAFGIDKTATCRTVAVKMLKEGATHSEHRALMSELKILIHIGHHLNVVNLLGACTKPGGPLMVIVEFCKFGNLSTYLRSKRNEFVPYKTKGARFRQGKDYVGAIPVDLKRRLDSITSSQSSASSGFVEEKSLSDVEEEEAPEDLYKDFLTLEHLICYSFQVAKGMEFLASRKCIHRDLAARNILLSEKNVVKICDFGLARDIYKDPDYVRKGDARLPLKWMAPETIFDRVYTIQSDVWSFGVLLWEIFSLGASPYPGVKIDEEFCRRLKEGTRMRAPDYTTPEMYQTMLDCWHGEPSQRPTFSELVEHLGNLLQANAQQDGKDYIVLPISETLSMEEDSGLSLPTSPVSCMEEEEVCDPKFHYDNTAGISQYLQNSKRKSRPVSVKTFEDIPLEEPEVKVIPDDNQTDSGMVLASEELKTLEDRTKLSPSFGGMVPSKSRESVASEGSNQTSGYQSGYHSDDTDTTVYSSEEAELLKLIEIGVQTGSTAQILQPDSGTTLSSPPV
Sequence of MSK1 (h) (O75582 whole entry): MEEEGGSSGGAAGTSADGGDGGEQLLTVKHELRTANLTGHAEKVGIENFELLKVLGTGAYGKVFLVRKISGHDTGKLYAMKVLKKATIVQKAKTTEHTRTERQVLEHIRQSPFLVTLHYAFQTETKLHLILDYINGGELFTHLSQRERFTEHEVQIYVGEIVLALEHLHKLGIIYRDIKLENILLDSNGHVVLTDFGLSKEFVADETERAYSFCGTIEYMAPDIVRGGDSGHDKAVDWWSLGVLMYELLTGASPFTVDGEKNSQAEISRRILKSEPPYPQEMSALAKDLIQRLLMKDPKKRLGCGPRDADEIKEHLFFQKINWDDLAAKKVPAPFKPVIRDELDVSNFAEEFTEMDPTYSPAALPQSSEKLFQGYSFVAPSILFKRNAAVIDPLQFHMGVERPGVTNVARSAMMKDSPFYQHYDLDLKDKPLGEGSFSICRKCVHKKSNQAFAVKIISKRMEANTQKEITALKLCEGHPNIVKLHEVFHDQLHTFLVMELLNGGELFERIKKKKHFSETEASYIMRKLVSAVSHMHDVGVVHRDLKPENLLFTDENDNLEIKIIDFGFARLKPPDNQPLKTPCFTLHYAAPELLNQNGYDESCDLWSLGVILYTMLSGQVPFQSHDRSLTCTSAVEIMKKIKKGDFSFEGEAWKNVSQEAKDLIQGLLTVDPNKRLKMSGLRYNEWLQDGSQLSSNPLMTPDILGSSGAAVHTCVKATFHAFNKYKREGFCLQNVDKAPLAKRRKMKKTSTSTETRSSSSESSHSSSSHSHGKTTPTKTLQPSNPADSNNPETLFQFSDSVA
Sequence of JNK1α1 (h) (P45983 other isoform, or with tags, fused parts or gaps limits assumed): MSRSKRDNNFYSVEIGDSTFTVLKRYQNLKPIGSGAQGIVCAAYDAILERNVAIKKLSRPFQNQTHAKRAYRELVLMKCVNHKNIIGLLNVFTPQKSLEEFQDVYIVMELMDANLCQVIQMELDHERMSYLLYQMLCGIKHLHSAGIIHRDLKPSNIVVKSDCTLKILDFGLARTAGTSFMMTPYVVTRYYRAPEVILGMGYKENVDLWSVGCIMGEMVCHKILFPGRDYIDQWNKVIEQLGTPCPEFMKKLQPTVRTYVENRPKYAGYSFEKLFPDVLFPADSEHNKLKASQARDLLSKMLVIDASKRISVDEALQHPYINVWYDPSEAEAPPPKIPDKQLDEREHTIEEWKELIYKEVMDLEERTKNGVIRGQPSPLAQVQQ
Sequence of cKit (h) (P10721 544-976 limits assumed): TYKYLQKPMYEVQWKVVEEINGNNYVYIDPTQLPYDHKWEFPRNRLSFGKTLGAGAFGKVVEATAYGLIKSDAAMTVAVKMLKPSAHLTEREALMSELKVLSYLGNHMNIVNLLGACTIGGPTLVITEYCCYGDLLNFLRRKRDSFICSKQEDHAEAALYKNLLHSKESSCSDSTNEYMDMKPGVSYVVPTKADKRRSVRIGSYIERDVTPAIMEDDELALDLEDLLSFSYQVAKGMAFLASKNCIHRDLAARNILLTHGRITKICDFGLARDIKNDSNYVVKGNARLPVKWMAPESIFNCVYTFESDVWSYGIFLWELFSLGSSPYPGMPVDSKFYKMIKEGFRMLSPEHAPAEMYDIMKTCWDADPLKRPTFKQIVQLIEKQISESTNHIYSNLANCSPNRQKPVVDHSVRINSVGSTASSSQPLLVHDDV

B1: FAKLAARLYRKALARQLGVAA (peptide)
peptide: FAKLAARLYRKALARQLGVAA
Profile-1 @ = 100 µm (kinase profiler assay) (EGFR (h)): 18
Profile-1 @ = 100 µm (kinase profiler assay) (CHK1 (h)): 54
Profile-1 @ = 100 µm (kinase profiler assay) (cKit (h)): 42
Profile-1 @ = 100 µm (kinase profiler assay) (MLCK (h)): 1
Profile-1 @ = 100 µm (kinase profiler assay) (Src(1-530) (h)): 5
Profile-1 @ = 100 µm (kinase profiler assay) (IGF-IR (h)): 69
Profile-1 @ = 100 µm (kinase profiler assay) (KDR (tl)): 78
Profile-1 @ = 100 µm (kinase profiler assay) (MSK1 (h)): 11
Profile-1 @ = 100 µm (kinase profiler assay) (TrkA (h)): 17
Profile-1 @ = 100 µm (kinase profiler assay) (FGFR1 (h)): 22
Profile-1 @ = 100 µm (kinase profiler assay) (L1MK1 (h)): 92
Profile-1 @ = 100 µm (kinase profiler assay) (MEKI (h)): 68
Profile-1 @ = 100 µm (kinase profiler assay) (BTK (h)): 19
Profile-1 @ = 100 µm (kinase profiler assay) (JNK1α1 (h)): 91
Profile-1 @ = 100 µm (kinase profiler assay) (PKG1β (h)): 15
Profile-1 @ = 100 µm (kinase profiler assay) (PhKγ2 (h)): 20
